According to publication PMC3149064, “Differential Calcium Signaling by Cone Specific Guanylate Cyclase-Activating Proteins from the Zebrafish Retina” (PLoS ONE, 2011):

Assays:
[1] = biological target: zebrafish guanylate cyclase-activating protein 1 (zebrafish (Danio rerio)); assay: SEC; analytical size exclusion chromatography (HPLC) on a BioSep-SEC S2000 column with molecular mass standards, 20 µg purified protein, run in the presence of 0.5 mM EGTA (Ca2+-free); dimer to monomers
[2] = biological target: the molecule itself; assay: as above

percent dimers [1] [%] | stoichiometry N [1] | Molecule | stoichiometry N [2]
18 | 2 | zebrafish guanylate cyclase-activating protein 1 (natural protein) | 
 |  | zebrafish guanylate cyclase-activating protein 7 (natural protein, zebrafish (Danio rerio), UniProt Q5MAC7 1-187, looked up, Non-myristoylated; also called zGCAP7; source: anion exchange, ammonium sulfate precipitation, SEC) MGQNQSDEEEEEVELTEIQPLYTRFMKVCPSGALHLHEFRRIFGVQSSSEEEALYMETIFKSFDTNRDNVIDFMEFVAAVHLVLRGNLEDRLKWSFKVYDRDENGKLDRQEVIHVIRILCKLKKNRINMTPVEICDRIFELLDENNDGQISLSEFLEGAEKDAWIMDLLKLDTNARVWFRDNLGKKT | 2
